Measured values reported in patent publication US20250034256A1 (EUCURE BEIJING BIOPHARMA, published 2025).

T1: mouse PD-1 (mPD-1) on transfected CHO cells (mouse, UniProt Q02242 25-288)
T1 sequence: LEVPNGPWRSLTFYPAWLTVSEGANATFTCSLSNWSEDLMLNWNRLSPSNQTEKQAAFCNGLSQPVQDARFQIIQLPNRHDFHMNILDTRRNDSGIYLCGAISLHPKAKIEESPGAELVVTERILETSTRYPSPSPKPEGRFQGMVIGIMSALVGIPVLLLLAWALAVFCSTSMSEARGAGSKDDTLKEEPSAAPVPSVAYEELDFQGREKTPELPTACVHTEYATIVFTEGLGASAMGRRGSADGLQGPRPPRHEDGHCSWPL

T2: monkey (rhesus macaque) PD-1 (rmPD-1) on transfected CHO cells (rhesus macaque, UniProt Q15116 25-288 (human entry))
T2 construct: also called monkey PD-1
T2 chain: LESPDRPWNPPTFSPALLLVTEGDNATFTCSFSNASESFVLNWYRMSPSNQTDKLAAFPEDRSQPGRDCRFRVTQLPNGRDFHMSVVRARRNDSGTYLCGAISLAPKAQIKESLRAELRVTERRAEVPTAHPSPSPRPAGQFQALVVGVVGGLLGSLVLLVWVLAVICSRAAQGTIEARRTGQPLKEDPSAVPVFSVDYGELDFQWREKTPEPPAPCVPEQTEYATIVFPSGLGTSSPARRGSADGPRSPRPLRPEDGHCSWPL


Tests used:
[1] = biological target: mouse PD-1 (mPD-1) on transfected CHO cells (mouse) (UniProt Q02242); experiment: flow cytometry on CHO cells transfected with mPD-1 (CHO-mPD-1); anti-mIgG Fc-FITC against SSC-H
[2] = biological target: chimeric (mouse and human) PD-1 (chiPD-1) on transfected CHO cells (chimeric (mouse and human)); experiment: flow cytometry on CHO cells transfected with chiPD-1 (CHO-chiPD-1); anti-mIgG Fc-FITC against SSC-H
Chain of chimeric (mouse and human) PD-1 (chiPD-1) on transfected CHO cells (chimeric (mouse and human)) (chain, as listed by the source mutant limits assumed): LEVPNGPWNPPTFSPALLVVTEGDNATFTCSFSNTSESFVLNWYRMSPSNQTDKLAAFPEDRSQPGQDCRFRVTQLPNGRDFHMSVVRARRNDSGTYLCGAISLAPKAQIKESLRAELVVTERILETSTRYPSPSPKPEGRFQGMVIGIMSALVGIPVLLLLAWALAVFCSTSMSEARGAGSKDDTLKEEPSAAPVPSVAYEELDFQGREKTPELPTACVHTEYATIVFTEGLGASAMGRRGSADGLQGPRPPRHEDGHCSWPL

[3] = biological target: monkey (rhesus macaque) PD-1 (rmPD-1) on transfected CHO cells (rhesus macaque); experiment: flow cytometry on CHO cells transfected with rmPD-1 (CHO-rmPD-1); anti-mIgG Fc-FITC against SSC-H
[4] = biological target: T1, mouse PD-1 (mPD-1) on transfected CHO …; experiment: flow cytometry, antibody at 1 µg/ml on CHO cells transfected with mPD-1 (CHO-mPD-1); anti-mIgG Fc-FITC against SSC-H
Method: (§1) 25 μl CHO cells were added to each well.
(§2) After being washed with PBS (1200 rmp, 5 min) twice, 50 μl of FITC labeled anti-mouse IgG Fc antibody (anti-mIgG Fc-FITC) was added into each well 1:500 dilution, followed by incubated at 4° C. for 30 minutes, and then PBS wash (1200 rmp, 5 min). The signals for FITC were determined by flow cytometry.

[5] = biological target: T1, mouse PD-1 (mPD-1) on transfected CHO …; experiment: flow cytometry on CHO cells transfected with mouse PD-1
Method: as §1, §2

[6] = biological target: T2, monkey (rhesus macaque) PD-1 (rmPD-1) …; experiment: flow cytometry, antibody at 1 µg/ml on CHO cells transfected with rmPD-1 (CHO-rmPD-1); anti-mIgG Fc-FITC against SSC-H
Method: as §1, §2

[7] = biological target: T3, Histidine-tagged human PD-1 protein (hPD-1-His) (human, UniProt Q15116 25-170, limits assumed); experiment: SPR (Biacore T200), antibody captured on Protein A chip, hPD-1-His analyte, 1:1 fit
T3 construct: Soluble analyte in SPR; not shown: histidine tag
T3 sequence (Q15116 25-170 limits assumed): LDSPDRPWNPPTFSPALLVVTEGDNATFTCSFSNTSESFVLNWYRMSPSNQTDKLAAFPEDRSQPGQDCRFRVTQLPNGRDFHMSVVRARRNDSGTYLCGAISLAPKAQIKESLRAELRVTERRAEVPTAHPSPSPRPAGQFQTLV
Method: The binding affinity of the anti-hPD-1 antibodies were measured using surface plasmon resonance (SPR) using Biacore™ (Biacore™, INC, Piscataway N.J.) T200 biosensor equipped with pre-immobilized Protein A sensor chips.
Histidine-tagged human PD-1 proteins (hPD-1-His) at the concentration of 200, 100, 50, 25, 12.5, 6.25, 3.125, 1.5625 nM were then injected at 30 μL/min for 100 seconds. Dissociation was monitored for 400 seconds. The chip was regenerated after the last injection of each titration with Glycine (pH 2.0, 30 μL/min for 12 seconds).
As a person of ordinary skill in the art would understand, the same method with appropriate adjustments for parameters (e.g., antibody concentration) was performed for each tested antibody.

Row | Molecule | % cells positive for Anti-mouse-IgGFc-FITC [4] [%] | binding result [5] | % cells positive for Anti-mouse-IgGFc-FITC [6] [%] | Kd [7] [nM] | koff [7] [s⁻¹] | kon [7] [M⁻¹ s⁻¹] | other results
1 | NC | – | – | – | – | – | – | % cells positive for Anti-mouse-IgGFc-FITC [1]: 0.346%; % cells positive for Anti-mouse-IgGFc-FITC [2]: 2.79%; % cells positive for Anti-mouse-IgGFc-FITC [3]: 0.812%
2 | mouse anti-hPD-1 antibody 18-3F1 (antibody, V domains shown, Mouse monoclonal antibody purified from ascites) VH: QVQLQQSGAELAKPGASVKMSCKASGYTFTSYWMHWVKQRPGQGLEWIGYINPSTGYTEYNQKFKDKATLTADKSSSTAYMQLSSLTSEDSAVYYCARGVRYYFDYWGQGTTLTVSS VL: DIVMSQSPSSLAVSAGEKVTMSCKSSQSLLNSRTRKNYLAWYQQKPGQSPKLLIYWASTRESGVPDRFTGSGSGTDFTLTISSVQAEDLAVYYCKQSYNLLTFGAGTKLELK | 1.51 | no binding (tested: 1 µg/ml) | 63.6 | – | – | – | –
3 | 3F1-H4K1-IgG4-S228P (antibody, V domains shown, Humanized; human IgG4 constant domains with S228P (EU numbering)) VH: QVQLQQSGAEVAKPGASVKMSCKASGYTFTSYWMHWVKQRPGQGLEWIGYINPSTGYTEYNQKFKDRATLTADKSTSTAYMELSSLTSEDTAVYYCARGVRYYFDYWGQGTLLTVSS VL: DIVMTQSPDSLAVSLGERATISCKSSQSLLNSRTRKNYLAWYQQKPGQSPKLLIYWASTRESGVPDRFSGSGSGTDFTLTISSVQAEDVAVYYCKQSYNLLTFGQGTKLELK | – | – | – | 460 | 0.00204 | 4420 | –
4 | 3F1-H4K2-IgG4-S228P (antibody, V domains shown, Humanized; human IgG4 constant domains with S228P (EU numbering)) VH: QVQLQQSGAEVAKPGASVKMSCKASGYTFTSYWMHWVKQRPGQGLEWIGYINPSTGYTEYNQKFKDRATLTADKSTSTAYMELSSLTSEDTAVYYCARGVRYYFDYWGQGTLLTVSS VL: DIVMTQSPDSLAVSLGERATMSCKSSQSLLNSRTRKNYLAWYQQKPGQSPKLLIYWASTRESGVPDRFSGSGSGTDFTLTISSVQAEDVAVYYCKQSYNLLTFGQGTKLELK | – | – | – | 369 | 0.00177 | 4800 | –
5 | 3F1-H4K3-IgG4-S228P (antibody, V domains shown, Humanized; human IgG4 constant domains with S228P (EU numbering)) VH: QVQLQQSGAEVAKPGASVKMSCKASGYTFTSYWMHWVKQRPGQGLEWIGYINPSTGYTEYNQKFKDRATLTADKSTSTAYMELSSLTSEDTAVYYCARGVRYYFDYWGQGTLLTVSS VL: DIVMTQSPSSLAVSAGERVTMSCKSSQSLLNSRTRKNYLAWYQQKPGQSPKLLIYWASTRESGVPDRFSGSGSGTDFTLTISSVQAEDVAVYYCKQSYNLLTFGQGTKLELK | – | – | – | 397 | 0.00161 | 4060 | –

The next lines start with results.

Row | % cells positive for Anti-mouse-IgGFc-FITC [4] [%] | binding result [5] | % cells positive for Anti-mouse-IgGFc-FITC [6] [%] | Kd [7] [nM] | koff [7] [s⁻¹] | kon [7] [M⁻¹ s⁻¹] | Molecule | other results
6 | 0.502 | no binding (tested: 1 µg/ml) | 64.3 | – | – | – | mouse anti-hPD-1 antibody 3-6G1 (antibody, V domains shown, Mouse monoclonal antibody purified from ascites; also called 03-6G1) VH: QVQLQQSGAELAKPGASLKMSCKASGYTLTSYWMHWVKQRPGQGLEWIGYINPNTGYTEYNQKFKDKATLTADKSSSTAYMQLSSLTSEDSAVYYCARGTAYYFDYWGQGTTLTVSS VL: DIVMSQSPSSLAVSAGEKVTMSCKSSQSLLNSRTRKNYLAWYQQKPGQSPKLLIYWASTRESGVPDRFTGSGSGTDFTLTISSVQAEDLAVYYCKQSYNLQTFGGGTKLEIK | –
7 | 0.381 | no binding (tested: 1 µg/ml) | 85 | – | – | – | mouse anti-hPD-1 antibody 25-1A7 (antibody, V domains shown, Mouse monoclonal antibody purified from ascites) VH: EVKLVESGGGLVQPGGSLKLSCAASGFTFSSYSMSWVRQTPEKRLEWVAHISSGGSSTYYPDTVKGRFTISRDNARNTLYLQMSSLKSEDTAMYYCTRQFYYGSSFWYFDVWGAGTTVTVSS VL: DNVLTQSPVSLAVSLGQRATISCKASQSVDFDGDSYMNWYQQKPGQPPKLLIYAASNLESGIPARFSGSGSGTDFTLNIHPVEEEDAATYYCQQSNEDPPTFGGGTKLEIK | –
